Reference: patent publication US12661385B2, “Modulation of mTORCI activity and autophagy via CIB2-RHEB interaction” (University of Maryland, Baltimore, priority 2018, dated 2026)

Legend:
RPE-J cells [1] = experiment: LC3-II induction / LC3 flux immunoblots in transfected RPE-J cells; assay type: cell-based, rat; conditions: RPE-J cells overexpressing CIB2 vs GFP, in the presence of bafilomycin A1, 24 hrs
Protocol: FIG. 13. Loss of CIB2, specifically in the RPE, leads to LC3 flux deficits, while CIB2 overexpression, in vitro, restores LC3 flux._a-d, RPE whole mounts treated with DMSO or 50 μM bafilomycin A1 (Baf-A1) overnight show reduced levels of LC3-II, quantified in panels b and d, in Cib2 deficient mice as compared to WT controls, indicating autophagy deficits. Ratio for WT or RPE-Cre+; Cib2^+/+ was set to 1. e. Representative immunoblots for LC3-II induction in transiently transfected (GFP or CIB2-IRES-GFP) RPE-J cells treated with DMSO, 50 μM bafilomycin-A1 (Baf-A1), or 100 nM rapamycin (Rapa) for 24 hrs. f. Quantification of LC3 flux (ratio of LC3-II/actin in Baf-A1 to DMSO treated samples) or LC3B-II/actin ratio up on rapamycin treatment for immunoblots shown in (e). […]
(§1) Complementary to the findings of Cib2 mutant mice, over-expressing CIB2 in RPE-J cells increased LAMP-1 and ATG5-ATG12 complex proteins levels (FIG. 12c-d). […] To test this idea, we assessed LC3-II flux. LC3-I is a cytosolic protein which when lipidated with a phosphatidylethanolamine adduct (LC3-II form) localizes to the growing auto/phagosome membrane, and thus can be used as a reliable readout for the dynamic autophagic process (Valapala et al., Autophagy 10, 480-496 (2014); Kim et al., Noncanonical Autophagy Promotes the Visual Cycle. Cell 154, 365-376 (2013); Klionsky et al., Autophagy 12, 1-222 (2016)). […]

RPE-J cells [2] = experiment: Immunoblots for autophagy/lysosomal proteins in transfected RPE-J cells; assay type: cell-based, rat; conditions: RPE-J cells over-expressing CIB2 vs GFP
Source text: FIG. 12. CIB2 mutant mice have less autophagy/lysosomal proteins, and overexpression of CIB2. in vitro, is sufficient to boost levels of autophagy/lysosomal proteins and clearance of opsin. a. […] Pro-cathepsin D levels were quantified from non-saturated exposures. c. Representative immunoblots for indicated autophagy/lysosomal proteins from RPE-J cells transiently transfected with GFP or CIB2-IRES-GFP. Endogenous CIB2 is observable in long exposure immunoblot, while transiently overexpressed CIB2 is readily observable in short exposure immunoblot. d. Quantification for immunoblots shown in (c). n=5 (LAMP-1) or 4 (ATG5-ATG12) independent transfection experiments. e, Schematic of the pulse-chase phagocytosis assay (left panel)—also see Examples below. […]
as §1

B1: CIB2: calcium and integrin binding protein 2, over-expressed in cells from plasmid constructs; SEQ ID NO:1 (human), SEQ ID NO:2 (mouse) (protein)
chain: MGNKQTIFTEEQLDNYQDCTFFNKKDILKLHARFYELAPNLVPMDYRKSPIVHVPMSLIIQMPELRENPFKERIVEAFSEDGEGNLTFNDFVDMFSVLCESAPRELKANYAFKIYDFNTDNFICKEDLEMTLARLTKSELEEDEVVLVCDKVIEEADLDGDGKLGFADFEDMIAKAPDFLSTFHIRI
modifications: left off: large carriers
Relative LC3 flux (ratio of LC3-II/actin in Baf-A1 to DMSO treated samples) (RPE-J cells [1]): markedly increased | ATG5-ATG12 complex protein levels (RPE-J cells [2]): increased | LAMP-1 protein levels (RPE-J cells [2]): increased
